Target: Delta-C70-Ferritin-HexaPro (DCFHP), from Expi293F cells (SARS-CoV-2 (Wuhan-1 isolate) | H. pylori) (UniProt P0DTC2)
Experiment: SEC-MALS

Question: Which stoichiometry N does the source give for “Delta-C70-Ferritin-HexaPro (DCFHP), from Expi293F cells (from UniProt P0DTC2 14-1146; Q9ZLI1 5-167)” here?
Answer: 24

Reference: paper PMC10110616
